Data published in PMC2804263 (Biochemistry, 2009).

Target: the molecule itself
Assay: crystal structure

B1: Bovine S100B (Ca^2+-S100B in the SBiX crystal structures) (natural protein)
chain: MSELEKAVVALIDVFHQYSGREGDKHKLKKSELKELINNELSHFLEEIKEQEVVDKVMETLDSDGDGECDFQEFMAFVAMITTACHEFFEHE
binding result: binds
